In one assay the target is T1, stock region of LILRB4 (UniProt Q8NHJ6 219-259, limits assumed).
T1 construct: domain: stock region
In words: flow cytometry. (A flow cytometer gives signals particle by particle.)

A further assay addresses T2, mouse LILRB4 (mouse, UniProt Q64281 24-335).
T2 construct: whole, on cells; also called 293T-mouse LILRB4
T2 sequence (looked up): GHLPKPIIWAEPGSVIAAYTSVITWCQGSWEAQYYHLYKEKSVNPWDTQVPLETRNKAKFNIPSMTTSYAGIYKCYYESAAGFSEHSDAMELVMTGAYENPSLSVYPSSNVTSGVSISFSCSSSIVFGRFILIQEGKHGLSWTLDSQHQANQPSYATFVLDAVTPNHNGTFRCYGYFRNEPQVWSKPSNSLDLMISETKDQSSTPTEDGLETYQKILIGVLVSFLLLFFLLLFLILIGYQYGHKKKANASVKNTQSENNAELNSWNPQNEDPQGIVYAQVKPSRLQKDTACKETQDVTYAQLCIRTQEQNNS
The assay can be described thus: flow cytometry on 293T-mouse LILRB4.

In the next assay the target is T3, LILRA2 (UniProt Q8N149 24-483, limits assumed).
T3 construct: whole, on cells
T3 sequence (Q8N149 24-483 limits assumed): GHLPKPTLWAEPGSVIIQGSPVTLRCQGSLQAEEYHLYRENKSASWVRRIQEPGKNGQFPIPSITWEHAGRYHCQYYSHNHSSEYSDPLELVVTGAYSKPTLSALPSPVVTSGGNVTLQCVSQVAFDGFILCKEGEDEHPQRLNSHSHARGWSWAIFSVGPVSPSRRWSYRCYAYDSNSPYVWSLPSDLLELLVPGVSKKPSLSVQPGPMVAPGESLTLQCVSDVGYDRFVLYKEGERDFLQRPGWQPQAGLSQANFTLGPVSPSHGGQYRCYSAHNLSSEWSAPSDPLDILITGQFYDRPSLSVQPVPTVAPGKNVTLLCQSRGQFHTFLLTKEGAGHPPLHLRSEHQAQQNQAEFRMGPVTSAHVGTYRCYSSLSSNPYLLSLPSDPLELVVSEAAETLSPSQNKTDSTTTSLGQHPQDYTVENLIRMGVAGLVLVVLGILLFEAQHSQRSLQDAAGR
The assay can be described thus: flow cytometry on 293T cells expressing the protein.

The next assay addresses T4, LILRA3 (UniProt Q8N6C8 24-439, limits assumed).
T4 construct: whole, on cells
The assay is described as above.

A further assay concerns the target T5, LILRA4 (UniProt P59901 24-499, limits assumed).
T5 construct: whole, on cells
The description is as above.

The target in the next assay is T6, LILRA5 (UniProt A6NI73 42-299, limits assumed).
T6 construct: whole, on cells
T6 sequence (A6NI73 42-299 limits assumed): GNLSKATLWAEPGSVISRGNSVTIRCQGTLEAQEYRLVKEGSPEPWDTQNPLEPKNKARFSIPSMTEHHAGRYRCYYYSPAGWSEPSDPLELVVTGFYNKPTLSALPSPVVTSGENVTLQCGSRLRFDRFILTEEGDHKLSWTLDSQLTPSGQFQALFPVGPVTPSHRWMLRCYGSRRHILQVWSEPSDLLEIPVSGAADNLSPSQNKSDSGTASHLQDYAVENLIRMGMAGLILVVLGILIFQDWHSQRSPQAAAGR
Described as above.

Another assay deals with T7, LILRA6 (UniProt Q6PI73 24-481, limits assumed).
T7 construct: whole, on cells
T7 sequence (Q6PI73 24-481 limits assumed): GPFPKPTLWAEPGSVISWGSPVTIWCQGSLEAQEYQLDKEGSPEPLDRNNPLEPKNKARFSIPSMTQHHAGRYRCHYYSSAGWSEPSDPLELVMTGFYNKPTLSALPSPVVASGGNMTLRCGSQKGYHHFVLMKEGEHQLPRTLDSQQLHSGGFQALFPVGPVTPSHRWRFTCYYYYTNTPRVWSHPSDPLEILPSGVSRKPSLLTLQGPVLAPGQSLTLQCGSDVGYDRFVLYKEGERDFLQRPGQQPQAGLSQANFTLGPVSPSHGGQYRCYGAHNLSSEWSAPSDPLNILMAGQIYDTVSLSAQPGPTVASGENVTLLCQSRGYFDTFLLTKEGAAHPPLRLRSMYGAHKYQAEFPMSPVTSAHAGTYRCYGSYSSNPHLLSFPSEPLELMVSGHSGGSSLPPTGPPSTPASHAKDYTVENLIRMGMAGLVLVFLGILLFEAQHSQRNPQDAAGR
The description is as above.

For another assay, the target named is T8, LILRB1 (UniProt Q8NHL6 24-650, limits assumed).
T8 construct: whole, on cells
T8 sequence (Q8NHL6 24-650 limits assumed): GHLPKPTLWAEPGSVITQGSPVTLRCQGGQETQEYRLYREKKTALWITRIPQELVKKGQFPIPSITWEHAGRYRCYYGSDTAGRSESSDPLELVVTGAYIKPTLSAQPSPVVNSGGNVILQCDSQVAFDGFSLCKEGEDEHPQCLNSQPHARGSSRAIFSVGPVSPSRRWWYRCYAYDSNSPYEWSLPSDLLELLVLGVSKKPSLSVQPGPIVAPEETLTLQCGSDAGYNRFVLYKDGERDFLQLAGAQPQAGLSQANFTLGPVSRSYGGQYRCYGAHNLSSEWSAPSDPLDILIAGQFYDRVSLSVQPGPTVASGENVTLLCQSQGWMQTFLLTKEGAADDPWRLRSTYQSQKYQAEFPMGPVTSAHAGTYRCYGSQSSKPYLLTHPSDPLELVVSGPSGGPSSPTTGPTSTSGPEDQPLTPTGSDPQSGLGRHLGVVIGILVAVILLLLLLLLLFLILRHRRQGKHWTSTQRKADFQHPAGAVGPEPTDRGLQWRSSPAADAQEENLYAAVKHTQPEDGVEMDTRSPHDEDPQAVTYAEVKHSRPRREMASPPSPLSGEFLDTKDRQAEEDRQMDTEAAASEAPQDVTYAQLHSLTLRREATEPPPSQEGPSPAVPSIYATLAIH
Described as above.

A further assay addresses T9, LILRB2 (UniProt Q8N423 22-597, limits assumed).
T9 construct: whole, on cells
Described as above.

For the next assay, the target named is T10, LILRB3 (UniProt O75022 24-631, limits assumed).
T10 construct: whole, on cells
T10 sequence (O75022 24-631 limits assumed): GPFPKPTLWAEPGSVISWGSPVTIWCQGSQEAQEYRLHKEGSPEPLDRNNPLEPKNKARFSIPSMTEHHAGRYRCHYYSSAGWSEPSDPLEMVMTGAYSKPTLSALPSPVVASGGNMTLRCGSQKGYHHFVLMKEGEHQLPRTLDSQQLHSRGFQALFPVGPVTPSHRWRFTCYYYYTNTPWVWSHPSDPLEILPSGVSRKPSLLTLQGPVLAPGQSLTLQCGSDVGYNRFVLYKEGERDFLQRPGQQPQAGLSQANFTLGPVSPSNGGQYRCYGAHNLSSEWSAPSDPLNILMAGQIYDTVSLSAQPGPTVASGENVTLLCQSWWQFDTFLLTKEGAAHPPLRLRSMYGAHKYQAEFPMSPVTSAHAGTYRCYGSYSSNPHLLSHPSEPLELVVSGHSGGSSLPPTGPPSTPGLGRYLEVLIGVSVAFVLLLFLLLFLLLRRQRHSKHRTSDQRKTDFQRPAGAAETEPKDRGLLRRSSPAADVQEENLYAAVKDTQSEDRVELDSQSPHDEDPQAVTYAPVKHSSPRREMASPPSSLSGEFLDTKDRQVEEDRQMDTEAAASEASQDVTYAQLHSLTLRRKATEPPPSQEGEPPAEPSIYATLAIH
The assay is described as above.

The next assay has as its target T11, LILRB5 (UniProt O75023 24-590, limits assumed).
T11 construct: whole, on cells
Described as above.

For the next assay, the target named is T12, LILRA1 (UniProt O75019 17-489, limits assumed).
T12 construct: whole, on cells
T12 sequence (O75019 17-489 limits assumed): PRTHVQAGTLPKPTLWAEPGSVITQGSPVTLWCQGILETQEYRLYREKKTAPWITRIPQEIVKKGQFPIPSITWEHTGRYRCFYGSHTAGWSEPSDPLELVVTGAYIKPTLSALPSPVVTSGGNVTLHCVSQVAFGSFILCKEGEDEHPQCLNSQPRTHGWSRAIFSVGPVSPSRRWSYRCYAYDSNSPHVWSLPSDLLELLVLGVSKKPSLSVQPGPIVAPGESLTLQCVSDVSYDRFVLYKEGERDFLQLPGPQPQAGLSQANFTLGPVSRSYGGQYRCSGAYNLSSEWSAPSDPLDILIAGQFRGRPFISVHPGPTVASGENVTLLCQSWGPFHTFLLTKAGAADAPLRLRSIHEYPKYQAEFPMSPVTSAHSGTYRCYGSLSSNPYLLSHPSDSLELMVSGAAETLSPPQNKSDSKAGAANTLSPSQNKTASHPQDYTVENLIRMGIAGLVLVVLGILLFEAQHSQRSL
The description is as above.

Another assay deals with T13, LILRB4 protein (UniProt Q8NHJ6 22-259).
T13 construct: also called Pro-LB
The assay can be described thus: SPR (Biacore 8K); VHH-Fc captured by anti-human IgG(Fc) on CM5 chip, LILRB4 protein as analyte 0.977-62.5 nM; 1:1 binding fit.

T4 sequence (Q8N6C8 24-439 limits assumed): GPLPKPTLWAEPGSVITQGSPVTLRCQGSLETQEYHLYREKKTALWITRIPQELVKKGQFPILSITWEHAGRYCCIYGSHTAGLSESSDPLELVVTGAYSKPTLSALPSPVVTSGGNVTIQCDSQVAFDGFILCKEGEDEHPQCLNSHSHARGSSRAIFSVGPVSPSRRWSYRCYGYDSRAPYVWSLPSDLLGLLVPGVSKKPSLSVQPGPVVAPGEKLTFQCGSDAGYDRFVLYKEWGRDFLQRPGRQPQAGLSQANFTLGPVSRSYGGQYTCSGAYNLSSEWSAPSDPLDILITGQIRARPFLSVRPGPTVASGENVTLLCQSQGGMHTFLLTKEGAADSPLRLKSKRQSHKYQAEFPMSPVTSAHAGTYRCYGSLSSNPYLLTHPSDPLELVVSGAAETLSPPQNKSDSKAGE
T9 sequence (Q8N423 22-597 limits assumed): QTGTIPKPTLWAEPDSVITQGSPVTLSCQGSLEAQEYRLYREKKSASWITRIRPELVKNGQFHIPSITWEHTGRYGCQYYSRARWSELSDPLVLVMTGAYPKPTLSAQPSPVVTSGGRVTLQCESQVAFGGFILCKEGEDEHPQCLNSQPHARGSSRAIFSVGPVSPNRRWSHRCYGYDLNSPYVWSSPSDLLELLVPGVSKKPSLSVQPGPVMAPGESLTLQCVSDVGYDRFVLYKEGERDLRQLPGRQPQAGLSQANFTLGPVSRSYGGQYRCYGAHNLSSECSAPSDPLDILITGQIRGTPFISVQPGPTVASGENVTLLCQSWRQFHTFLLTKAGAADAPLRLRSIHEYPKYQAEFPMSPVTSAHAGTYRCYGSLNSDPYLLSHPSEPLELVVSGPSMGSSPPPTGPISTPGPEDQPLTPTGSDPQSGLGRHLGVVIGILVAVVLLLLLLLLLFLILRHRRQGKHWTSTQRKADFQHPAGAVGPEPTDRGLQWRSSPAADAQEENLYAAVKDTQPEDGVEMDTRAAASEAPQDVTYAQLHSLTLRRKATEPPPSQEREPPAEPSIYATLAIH
T1 sequence (Q8NHJ6 219-259 limits assumed): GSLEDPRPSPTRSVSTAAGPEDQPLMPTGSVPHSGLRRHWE
T11 sequence (O75023 24-590 limits assumed): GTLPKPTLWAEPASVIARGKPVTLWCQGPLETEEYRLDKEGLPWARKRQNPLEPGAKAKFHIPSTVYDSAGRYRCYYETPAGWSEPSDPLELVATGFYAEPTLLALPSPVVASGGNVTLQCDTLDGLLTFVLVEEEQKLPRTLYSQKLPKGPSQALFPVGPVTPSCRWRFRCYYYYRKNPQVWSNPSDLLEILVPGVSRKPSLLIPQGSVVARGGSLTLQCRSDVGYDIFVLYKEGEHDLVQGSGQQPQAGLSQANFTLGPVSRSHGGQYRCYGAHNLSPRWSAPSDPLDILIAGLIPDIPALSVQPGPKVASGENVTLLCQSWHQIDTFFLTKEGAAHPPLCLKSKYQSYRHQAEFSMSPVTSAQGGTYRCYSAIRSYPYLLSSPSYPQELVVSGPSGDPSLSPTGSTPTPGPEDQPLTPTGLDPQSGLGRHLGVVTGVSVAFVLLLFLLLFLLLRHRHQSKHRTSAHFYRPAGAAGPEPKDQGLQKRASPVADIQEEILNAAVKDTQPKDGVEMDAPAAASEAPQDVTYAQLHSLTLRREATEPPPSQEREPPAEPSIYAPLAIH
T5 sequence (P59901 24-499 limits assumed): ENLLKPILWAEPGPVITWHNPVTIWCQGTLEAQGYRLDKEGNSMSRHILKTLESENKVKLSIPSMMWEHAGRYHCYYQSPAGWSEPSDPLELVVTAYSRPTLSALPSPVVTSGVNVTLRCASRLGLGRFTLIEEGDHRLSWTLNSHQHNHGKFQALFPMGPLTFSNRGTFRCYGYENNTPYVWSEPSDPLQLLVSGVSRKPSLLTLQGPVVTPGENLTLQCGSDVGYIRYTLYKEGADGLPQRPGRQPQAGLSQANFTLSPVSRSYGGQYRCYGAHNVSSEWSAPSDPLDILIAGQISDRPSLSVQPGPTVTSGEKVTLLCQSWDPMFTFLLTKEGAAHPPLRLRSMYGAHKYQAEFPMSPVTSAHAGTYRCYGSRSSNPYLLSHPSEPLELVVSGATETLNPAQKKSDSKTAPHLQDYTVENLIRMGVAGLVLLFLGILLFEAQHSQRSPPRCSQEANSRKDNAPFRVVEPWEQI

B1: NLB4 VHH antibody fused with human IgG1 (Fc) (Fc fusion)
chain: DVQLQESGGGLVQSGGSLRLSCLASGTSGNVKAVGWYGWYRQAPGKQREVVATITRGGIPNYADSVQGRFTISRDNAQDTVFLQMNSLKPADTAVYYCYARILTDDWHDLWGQGTQVTVSSGGGGS
notes: also called NLB(G4S)IGG1FC; NLB4 nanobody; not shown: human IgG1 Fc
In general, Kd refers to the free concentration of one partner at which half of the binding sites on the other are occupied at equilibrium, for simple one-to-one binding. A high value points to weaker binding. Broadly, the koff is the rate constant with which the complex falls apart. Read a low koff as slow dissociation. Usually kon stands for the second-order rate constant of association. Read a low kon as slow association. As for B1, the binding result in the assay with stock region of LILRB4, in the assay with mouse LILRB4, with LILRA2, with LILRA3, with LILRA4 and in the assay with LILRA5 was “no binding” throughout. The binding result in the assay with LILRA6, in the assay with LILRB1, in the assay with LILRB2, with LILRB3, with LILRB5 and in the assay with LILRA1 was “no binding” throughout. The molecule also came in with a Kd in the assay with LILRB4 protein of 1.32 nM. In addition, the koff in the assay with LILRB4 protein amounted to 0.000551 s⁻¹. The molecule further had a kon in the assay with LILRB4 protein of 418000 M⁻¹ s⁻¹.

B2: NLB14 VHH antibody fused with human IgG1 (Fc) (Fc fusion)
chain: DVQLQESGGGLVQPGGSLRLSCAASGFTLDYYAIGWFRQAPGKEREGVSCVSSSDGSTYYADSVKGRFTISRDNAKNTVYLQMNSLKPEDTAVYYCAADQYSSTWTIRLTRCHFGSWGQGTQVTVSSGGGGS
notes: also called NLB(G4S)IGG1FC; NLB14 nanobody; not shown: human IgG1 Fc
For the molecule B2, the binding result in the assay with stock region of LILRB4, with mouse LILRB4, with LILRA2, with LILRA3, with LILRA4 and with LILRA5 was “no binding” throughout. The binding result with LILRA6, with LILRB1, with LILRB2, in the assay with LILRB3, with LILRB5 and with LILRA1 was “no binding” in each case. For the same molecule, binding with LILRB4 protein was put at a Kd of 0.493 nM. For the same molecule, the koff with LILRB4 protein is 0.000301 s⁻¹. The same molecule registered a kon in the assay with LILRB4 protein of 612000 M⁻¹ s⁻¹.

The values are drawn from patent EP4606823A1 (Bristar Immunotech Limited, dated 2025).
